Laboratory results taken from the Human Domainome abundance scans (Beltran et al. 2025).
± gives the uncertainty stated by the source.

B1: RanBP-type and C3HC4-type zinc finger-containing protein 1, residues 369 to 411; numbered along this chain, Q9BYM8 (parent)
chain: YHCKTPDCKGWCFFEDDVNEFTCPVCFHVNCLLCKAIHEQMNC

Variants of: B1
Assay: abundance fitness (aPCA) (normalised: wild type 0, dead -1); higher = more abundant; growth selection in yeast, the domain comes from the species named
Details: Homo sapiens

Abundance fitness of substitutions, site by site:
E39: F -0.213 ± 0.11; C -0.27 ± 0.095; D 0.03 ± 0.065; K -0.021 ± 0.059; T 0.021 ± 0.051; P 0.029 ± 0.059; N -0.081 ± 0.17; A -0.09 ± 0.049; Q -0.012 ± 0.057; M -0.143 ± 0.072; L -0.106 ± 0.057; G 0.024 ± 0.04; V -0.155 ± 0.048; H -0.167 ± 0.079; S -0.09 ± 0.051; W -0.249 ± 0.06; R -0.111 ± 0.045
T22: Q -0.118 ± 0.085; H -0.032 ± 0.38; F -0.261 ± 0.16; D -0.343 ± 0.11; I -0.243 ± 0.084; L -0.146 ± 0.05; K -0.102 ± 0.083; M -0.29 ± 0.092; P -0.413 ± 0.17; R -0.126 ± 0.041; W -0.422 ± 0.048; G -0.658 ± 0.05; C -0.149 ± 0.055; A -0.296 ± 0.05; V -0.254 ± 0.051; E -0.166 ± 0.045; N -0.32 ± 0.13; S -0.267 ± 0.056
C31: E -0.611 ± 0.057; L -1.02 ± 0.1; W -0.738 ± 0.09; Y -0.154 ± 0.2; V -0.76 ± 0.064; S -0.438 ± 0.043; A -0.805 ± 0.056; H -0.469 ± 0.085; K -0.758 ± 0.12; F -0.648 ± 0.35; Q -0.521 ± 0.077; R -0.558 ± 0.04; M -0.725 ± 0.098; T -0.451 ± 0.057; G -0.655 ± 0.041; N -0.532 ± 0.17; D -0.54 ± 0.083
K35: C -0.069 ± 0.1; Q -0.026 ± 0.06; L -0.321 ± 0.051; H -0.023 ± 0.067; Y -0.273 ± 0.061; F -0.149 ± 0.059; D -0.156 ± 0.1; M -0.026 ± 0.07; E -0.026 ± 0.057; T -0.281 ± 0.042; G 0.067 ± 0.044; P -0.356 ± 0.063; I -0.843 ± 0.18; R -0.021 ± 0.043; S -0.014 ± 0.057; V -0.406 ± 0.05; A -0.147 ± 0.046; W -0.385 ± 0.064
V29: T -0.108 ± 0.059; D -0.414 ± 0.13; F -0.54 ± 0.1; Q -0.311 ± 0.074; G -0.562 ± 0.055; A -0.368 ± 0.046; W -0.319 ± 0.074; I -0.453 ± 0.25; E -0.34 ± 0.056; R -0.105 ± 0.044; L -0.215 ± 0.058; K -0.109 ± 0.095; S -0.257 ± 0.086; P -0.624 ± 0.11; C -0.265 ± 0.25
F21: Q -0.205 ± 0.053; P -0.688 ± 0.067; Y -0.06 ± 0.13; V 0.06 ± 0.038; R -0.359 ± 0.04; S 0.07 ± 0.043; T 0.03 ± 0.047; W 0.083 ± 0.05
M41: P 0.059 ± 0.052; H 0.043 ± 0.083; I -0.112 ± 0.069; S 0.156 ± 0.047; G 0.202 ± 0.038; A 0.178 ± 0.042; R 0.128 ± 0.038; F -0.2 ± 0.11; V -0.008 ± 0.043; D 0.094 ± 0.066; N 0.114 ± 0.062; L -0.076 ± 0.049; T 0.155 ± 0.048; C -0.004 ± 0.068; Q 0.15 ± 0.049; K 0.101 ± 0.052; E 0.135 ± 0.061
A36: K -0.084 ± 0.052; V -0.28 ± 0.044; N -0.111 ± 0.065; M -0.266 ± 0.068; E 0.058 ± 0.062; I -0.331 ± 0.11; F -0.848 ± 0.12; L -0.534 ± 0.053; D -0.053 ± 0.064; T 0.005 ± 0.047; S 0.01 ± 0.05; G 0.051 ± 0.038; R -0.015 ± 0.043; Y -0.83 ± 0.22; P -0.333 ± 0.064; C -0.154 ± 0.071; W -0.87 ± 0.075
Q40: V -0.32 ± 0.053; N 0.036 ± 0.093; R -0.022 ± 0.04; C -0.139 ± 0.064; S 0.023 ± 0.041; L -0.452 ± 0.062; G 0.129 ± 0.038; F -0.54 ± 0.12; E 0.107 ± 0.054; A -0.094 ± 0.043; T 0.068 ± 0.045; D 0.043 ± 0.08; P 0.005 ± 0.049; W -0.542 ± 0.075; H -0.031 ± 0.076
F27: W -0.147 ± 0.047; Q 0.059 ± 0.047; E -0.184 ± 0.048; S -0.11 ± 0.052; R 0.005 ± 0.04; I -0.571 ± 0.21; L -0.02 ± 0.044; M -0.159 ± 0.087; K 0.108 ± 0.047; G 0.115 ± 0.038; T -0.068 ± 0.046; D -0.004 ± 0.056; P -0.62 ± 0.068; V -0.536 ± 0.048; H 0.155 ± 0.057
P24: A -0.558 ± 0.052; Q -0.099 ± 0.077; C -0.658 ± 0.067; R -0.39 ± 0.047; E -0.277 ± 0.067; T -0.324 ± 0.06; L -0.681 ± 0.13; N -0.233 ± 0.077; G -0.389 ± 0.041; D -0.36 ± 0.13; K -0.287 ± 0.073; I -1.09 ± 0.22; V -0.774 ± 0.066; H -0.676 ± 0.11
I37: Y -0.464 ± 0.064; D -0.107 ± 0.076; K -0.208 ± 0.083; H -0.218 ± 0.086; W -0.39 ± 0.05; P -0.133 ± 0.051; C -0.222 ± 0.12; E -0.181 ± 0.055; F -0.412 ± 0.086; M -0.214 ± 0.076; S -0.183 ± 0.046; L -0.219 ± 0.047; Q -0.077 ± 0.18; R -0.145 ± 0.039; N -0.269 ± 0.089; A -0.152 ± 0.043
C26: P -1 ± 0.13; G -0.757 ± 0.049; N -0.708 ± 0.14; L -0.792 ± 0.086; R -0.754 ± 0.061; A -0.713 ± 0.069; Y -0.77 ± 0.48; K -0.834 ± 0.095; I -0.783 ± 0.13; H -0.537 ± 0.14; M -1.05 ± 0.42; D -0.567 ± 0.078; S -0.804 ± 0.14; W -1.07 ± 0.093; T -0.921 ± 0.13; V -1.03 ± 0.093
H38: V -0.803 ± 0.082; Y -0.721 ± 0.12; N -0.76 ± 0.09; T -0.639 ± 0.088; K -0.707 ± 0.084; E -0.46 ± 0.06; R -0.699 ± 0.055; S -0.614 ± 0.052; D -0.482 ± 0.062; P -0.611 ± 0.084; G -0.536 ± 0.049; A -0.689 ± 0.064; M -0.89 ± 0.15; C -0.774 ± 0.091; L -1.14 ± 0.11; Q -0.63 ± 0.06; I -0.881 ± 0.42; F -0.59 ± 0.19; W -1 ± 0.086
V25: I -0.057 ± 0.089; H -0.093 ± 0.067; P -0.76 ± 0.079; Q -0.17 ± 0.054; C -0.181 ± 0.052; G -0.49 ± 0.055; D -0.142 ± 0.058; T -0.36 ± 0.064; E -0.138 ± 0.066; A -0.136 ± 0.066; R -0.242 ± 0.045; Y -0.221 ± 0.2; K -0.112 ± 0.049; L -0.113 ± 0.046; S -0.225 ± 0.047; W -0.406 ± 0.061; M -0.298 ± 0.072
C34: A -0.733 ± 0.05; M -0.881 ± 0.087; W -1.02 ± 0.094; T -0.547 ± 0.068; P -0.174 ± 0.067; N -0.536 ± 0.24; Y -0.875 ± 0.16; K -0.623 ± 0.11; F -0.654 ± 0.11; H -0.501 ± 0.059; R -0.683 ± 0.05; G -0.467 ± 0.044; Q -0.494 ± 0.048; E -0.312 ± 0.044; S -0.488 ± 0.052
L32: T -0.015 ± 0.05; F -0.407 ± 0.15; D -0.531 ± 0.12; P -0.525 ± 0.063; W -0.417 ± 0.058; M -0.264 ± 0.087; Q -0.168 ± 0.065; C -0.27 ± 0.12; S -0.295 ± 0.055; K 0.037 ± 0.051; Y -0.302 ± 0.062; A -0.231 ± 0.044; E -0.366 ± 0.045; G -0.369 ± 0.045; R 0.026 ± 0.039; N -0.131 ± 0.14; V -0.167 ± 0.051
C23: A -0.794 ± 0.073; E -0.82 ± 0.084; T -0.761 ± 0.076; L -0.89 ± 0.17; V -0.911 ± 0.096; Y -0.677 ± 0.17; Q -0.621 ± 0.058; H -0.786 ± 0.19; G -0.891 ± 0.07; S -0.904 ± 0.098; M -0.895 ± 0.088; R -0.771 ± 0.057; W -0.741 ± 0.1; K -0.529 ± 0.14
H28: Y -0.489 ± 0.11; D -0.661 ± 0.091; T -0.041 ± 0.05; P -0.912 ± 0.077; W -0.592 ± 0.085; G -0.103 ± 0.038; I -0.224 ± 0.16; Q 0.059 ± 0.051; A 0.081 ± 0.043; K 0.131 ± 0.054; E 0.005 ± 0.055; C -0.205 ± 0.06; V -0.298 ± 0.066; S -0.029 ± 0.048; M -0.065 ± 0.043; R 0.011 ± 0.04
N30: T -0.57 ± 0.06; K -0.781 ± 0.12; E -0.891 ± 0.099; R -0.8 ± 0.066; A -1.3 ± 0.14; P -0.784 ± 0.11; L -1.22 ± 0.16; V -1.04 ± 0.11; W -0.855 ± 0.083; I -0.835 ± 0.29; M -1.16 ± 0.12; Y -0.614 ± 0.14; G -0.811 ± 0.059; Q -0.788 ± 0.15; C -0.777 ± 0.12; D -0.79 ± 0.15; H -0.42 ± 0.14; S -0.797 ± 0.076
L33: I -0.158 ± 0.18; S -0.065 ± 0.045; F -0.313 ± 0.14; M 0.033 ± 0.12; V -0.072 ± 0.045; K 0.138 ± 0.043; D -0.148 ± 0.09; P 0.084 ± 0.058; H -0.062 ± 0.055; Y -0.088 ± 0.22; W -0.262 ± 0.049; T -0.026 ± 0.057; C -0.213 ± 0.078; E -0.073 ± 0.046; N -0.116 ± 0.1
